Measured values as given in US20230322953A1 (HARBOUR BIOMED SHANGHAI, published 2023).

T1: human BCMA (human, UniProt Q02223 1-184)
T1 construct: whole, on cells; also called hBCMA; TNFRSF17
T1 sequence (looked up): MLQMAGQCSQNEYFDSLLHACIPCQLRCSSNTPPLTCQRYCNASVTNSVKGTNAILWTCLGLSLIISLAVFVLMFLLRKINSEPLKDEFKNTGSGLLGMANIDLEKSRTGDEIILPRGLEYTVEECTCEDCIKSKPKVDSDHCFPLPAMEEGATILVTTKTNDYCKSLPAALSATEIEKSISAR


Target: T1, human BCMA
Experiment: FACS on NCI-H929 cells

Row | Binder | EC50 | Maximum MFI
1 | PR003876 (bispecific antibody, human IgG1, lambda, L234A L235A, BCMAxCD3, Fab-Fc-VH (structure 11); CD3 Fab of PR003886, BCMA VH of PR004571; IgG1 knob/hole, LALA) light: QAVVTQEPSLTVSPGGTVTLTCRSSTGAVTTSNYANWVQQKPGQAPRGLIGGTNKRAPWTPARFSGSLLGDKAALTLLGAQPEDEAEYFCALWYSNLWVFGGGTKLTVLGQPKAAPSVTLFPPSSEELQANKATLVCLISDFYPGAVTVAWKADSSPVKAGVETTTPSKQSNNKYAASSYLSLTPEQWKSHRSYSCQVTHEGSTVEKTVAPTECS heavy: not shown EVQLVETGGGLIQPGGSLRLSCAASGFTVSDSYMTWVRQAPGKGLEWVSVIFSGGKTYYSDSVKGRFTISRDNAKNTLYLQMNSLRAEDTALYYCARRNYDQTIGTDVFDIWGQGTMVTVSSASEPKSSDKTHTCPPCPAPEAAGGPSVFLFPPKPKDTLMISRTPEVTCVVVDVSHEDPEVKFNWYVDGVEVHNAKTKPREEQYNSTYRVVSVLTVLHQDWLNGKEYKCKVSNKALPAPIEKTISKAKGQPREPQVCTLPPSREEMTKNQVSLSCAVKGFYPSDIAVEWESNGQPENNYKTTPPVLDSDGSFFLVSKLTVDKSRWQQGNVFSCSVMHEALHNHYTQKSLSLSPGK | 2.3 nM | 10900
2 | PR002000 (bispecific antibody, IgG1, BCMAxCD3, scFv(VL-VH)-Fc-VH (structure 20); CD3 scFv of PR000510, BCMA VH of PR000943; IgG1 knob/hole, AAG) chain 1: QAVVTQEPSLTVSPGGTVTLTCRSSTGAVTTSNYANWVQQKPGQAPRGLIGGTNKRAPWTPARFSGSLLGDKAALTLLGAQPEDEAEYFCALWYSNLWVFGGGTKLTVLGGGQSGQGGSGGGGSEVQLVESGGGLVQPGGSLKLSCAASGFTFNTYAMNWVRQASGKGLEWVGRIRSKYNNYATYYADSVKDRFTISRDDSKSTLYLQMNSLKTEDTAVYYCVRHGNFGNSYVSWFAYWGQGTLVTVSSASEPKSSDKTHTCPPCPAPEAAGGPSVFLFPPKPKDTLMISRTPEVTCVVVDVSHEDPEVKFNWYVDGVEVHNAKTKPREEQYNSTYRVVSVLTVLHQDWLNGKEYKCKVSNKALGAPIEKTISKAKGQPREPQVYTLPPCREEMTKNQVSLWCLVKGFYPSDIAVEWESNGQPENNYKTTPPVLDSDGSFFLYSKLTVDKSRWQQGNVFSCSVMHEALHNHYTQKSLSLSPGK chain 2: EVQLVETGGGLIQPGGSLRLSCAASGFPVSSNYMSWVRQAPGKGLEWVSVIFSGGRTYYADSVKGRFTISRDNSKNTLYLQMNSLRAEDTAVYYCARRNWIDGRDAFDIWGQGTMVTVSSASEPKSSDKTHTCPPCPAPEAAGGPSVFLFPPKPKDTLMISRTPEVTCVVVDVSHEDPEVKFNWYVDGVEVHNAKTKPREEQYNSTYRVVSVLTVLHQDWLNGKEYKCKVSNKALGAPIEKTISKAKGQPREPQVCTLPPSREEMTKNQVSLSCAVKGFYPSDIAVEWESNGQPENNYKTTPPVLDSDGSFFLVSKLTVDKSRWQQGNVFSCSVMHEALHNHYTQKSLSLSPGK | – | 4640
3 | PR002002 (bispecific antibody, IgG1, BCMAxCD3, scFv(VL-VH)-Fc-VH (structure 20); CD3 scFv of PR000510, BCMA VH of PR001046; IgG1 knob/hole, AAG) chain 1: QAVVTQEPSLTVSPGGTVTLTCRSSTGAVTTSNYANWVQQKPGQAPRGLIGGTNKRAPWTPARFSGSLLGDKAALTLLGAQPEDEAEYFCALWYSNLWVFGGGTKLTVLGGGQSGQGGSGGGGSEVQLVESGGGLVQPGGSLKLSCAASGFTFNTYAMNWVRQASGKGLEWVGRIRSKYNNYATYYADSVKDRFTISRDDSKSTLYLQMNSLKTEDTAVYYCVRHGNFGNSYVSWFAYWGQGTLVTVSSASEPKSSDKTHTCPPCPAPEAAGGPSVFLFPPKPKDTLMISRTPEVTCVVVDVSHEDPEVKFNWYVDGVEVHNAKTKPREEQYNSTYRVVSVLTVLHQDWLNGKEYKCKVSNKALGAPIEKTISKAKGQPREPQVYTLPPCREEMTKNQVSLWCLVKGFYPSDIAVEWESNGQPENNYKTTPPVLDSDGSFFLYSKLTVDKSRWQQGNVFSCSVMHEALHNHYTQKSLSLSPGK chain 2: EVQLVETGGGLIQPGGSLRLSCAASGFTVSDNYMTWVRQAPGKGLEWVSVIFSGGNTYYADSVKGRFTISRDNAKNTLYLQMNSLRAEDTALYYCARRNYDDTRGTDVFDIWGQGTMVTVSSASEPKSSDKTHTCPPCPAPEAAGGPSVFLFPPKPKDTLMISRTPEVTCVVVDVSHEDPEVKFNWYVDGVEVHNAKTKPREEQYNSTYRVVSVLTVLHQDWLNGKEYKCKVSNKALGAPIEKTISKAKGQPREPQVCTLPPSREEMTKNQVSLSCAVKGFYPSDIAVEWESNGQPENNYKTTPPVLDSDGSFFLVSKLTVDKSRWQQGNVFSCSVMHEALHNHYTQKSLSLSPGK | – | 4500
